assay: soluble on expression in E. coli; label from the status in PepcDB or PDB records

Soluble on expression in E. coli, not soluble:
MGSDKIHHHHHHMNLPSILVIDDLPDNFDVIETLLSEQDYTLHYVASGQEAIASLNLFQPDLILLDVMMPGMDGIEVCQRIKAMPQWQSVPIIMVTALTAKEDLARCLKSGADDFISKPINALELRARLHSMLRIKQQYDKIQTLSNIQTSTIKVLESTLDELRGNLAAALPHELNTPLNGIVGTISILMADIENMDTGEIQELLGWVDLSARNLERLIKQLLLYLELELSTNQQQNIASESTHFSIAVIEAILQSHAPSVNRRDDLMFAIEEAEVSISARYLAIIIYELVDNALKFSRRGTTIKISSQVVAGMLNVYIHDFGRGMTEEQISKIGAFMQFERKTYEQQGIGMGLKLAKQIIESHGGLFSISSVYKKETMVHIALPIAYSRYLS, MGSDKIHHHHHHMNLRQLYYFKKLAEKEHYTIAAAELSITQPSLSHSIAELERELGVYLFEKQGRNIRLTKYGRFYLTYVEKSLAELEKGEKLLHELTSPSHGNIDLGFIYTMGAHTVPELVQNFTKAENHKDITFSFYQGATKSIIPDLKNEKFDLAICSYVENEPDIEFLPLTKQELVIVVAENHPLAKYDSIDLKDTADYSYIFFSDTSGLRPLIDSLFAEINIQPKIGCYVEEDTAMVGLVSVDYGISIMPKISSLAHYNVKVLSINEPKHERFIYLASLKNHYISPASKAFKDFALRYGEKHFL, MGSDKIHHHHHHMNLSRVGKHGTGMWNYSKNIADMLHESGFLDSIICSKDHVEYFSNRYKDPKVDIIITPEIVSNTMKVSKFRPLIWLSYSYFLGCKLVLSKKKKDVALLSTTHHSIPFFKNQFITIHDLRPAFYPDSKLQEIYFSHYLPRKVKELRGVFTVSETVKNEIEEHMGVARSDIQVVYNSVDPSLRPDGTDNSEQATIKNTFLMVGASWKHKNAHSFLKNFLAYHKDNYSAVIVCGQTDYFDELKSLVATLGLENNVTFKHHISEQELSSLYKTSFALVYPSLSEGFGIPPIEAMSLSLPVIVSDIPVFKEILGEAAVYVDPNVRESWEHAVDTLKVSRENVIDTGLQRVNLYSYERCKDMLMLALNNINEKSR, MGSDKIHHHHHHMNLTIRQFRAFLAVADLRSFTAASKYLCITQGAVSGLINEMESQMEVSLFDRTSRVVKLSPDGEKFLPAAMRVVEEFQRAENYARDLKEIKKSLVRVVGAPLIACAFLPQIIHAFKRQHPHTHVQLIDKPMSQLQKSIMLGEADFGIGPERPLEPEIDKQTLFTTEIALYCHPDYRLHKKTVRWEEIQSEELIAVGNESIPMISATAGVRIKPKMTVEHMATAMSLAAQCEGVVIAGTFSRHYAKSYQLATCSLTPPLRRNMNLYFHAWRAQTPATQRFRDFLFSYVDEHHDAPANQR, MGSDKIHHHHHHMNNEFYNQGLEKAKQRDYAGAIEEFSRALKLTPYFAEAYLQRGLAYYDSGAILLAVSDYTEVIRINPESVEAYYCRSLARLALKNLPGALEDVEQAIRLNINYAAAHHLRGTVRRKQGYIQDAIASFKQAAELYLQQKDQENCRLCLEKIKQLQPPKQSTIQPTKSPIAPITSVNEYFTQLLDKAEQGDTREAIADLNWILQADPQDAQAYCCRGVVRCKMGNYREAIADFNQALQLNFQDAVVYRNRGKARSLLGDHRGAIADFNQAIQIQPEDTLGYVARGNTYRAMGNYLGAIQDYGKALQINPHDAQAYYNRGIAYTFLEEMQNAVEDYQRAASIFCEQQDWENYQLTQDSLKQIQTSIPEYKQQKSNVLRQKLLRLVGGYWEIAQRLIQQQKDYQPGMSEEWYMQKVIDDLERDRGR, MGSDKIHHHHHHMNNIGLILEGGGMRGVYTAGVLDFFMDKNLYFPYVSGVSMGACNAASYVSKQRGRTKSVTVDLADDSRYISLKNFIKYKSIFGMDFIFDEVPNKLFPFDFNTFSNSTQKLVIGTTDCLTGKEVYFSHSSSNDILDIIRASSSLPFISEPVKINNYTLMDGGIADPIPIKRSIEDGNAKNVLILTREADYIKNPFKHNWILSKKYSQFKGLCKAILNRHKLYNETLKYISHLENTGKVFIIRPTFSPKVKRIEKNKSRLNALYLEGYKDAEKNYDKLLQFLNSN, MGSDKIHHHHHHMNNLDIKTLGQVFTPKKIVDFMLTLKHNHGSVLEPSAGDGSFLKRLKKAVRIEIDPKICPKNALCMDFFDYPLENQFDTIIGNPPYVKHKDIAPSTKEKLHYSLFDERSNLYLFFIEKAIKHLKPKGELIFITPRDFLKSTSSVKLNEWIYKEGTITHFFELGDQKVFPNAMPNCVIFRFCKGNFSRITNDGLQFLCKKGILYFLNQSYTQKLSEVFKVKVGAVSGCDKIFKNEKYGNLEFVTSITKRTNALEKMVFVNEPNDYLLQHKDSLMQRKIKKFNENNWFEWGRMHHISPKKRIYVNAKTHQKNPFFIHQCPNYDGSILALFPYNQNLDLQNLCDKLNAINWQELGFVCGGRFLFSQRSLENALLPKDFLNLG, MGSDKIHHHHHHMNNLFDRIASRYVDGAEVFYGWMNMSLNQIKRAKKLGIKTIVECASSHPLYQLKILEEEYQKWNIPFKVGSQKIYLKALKEIKEADFIKIPSDFVQETFIKNGIPEEKLIKIPFGVDLEKFQPKDNYNNEIFRAVFVGTVSIRKGIPYLLKAWSELNLKDAQLYVVGAISPDVKIIIAKYSKLKNIIFTGRVKDIVPILRESNVFVFPSIEEGSALVTYEAMASGLPSIVTYNSGSIVRHGKDGFVIPIRDIKSLKDGIQYFYENPSEVKRMGKNARKHVEKYTWYNYGENLYNELKRLGLL, MGSDKIHHHHHHMNNSASEQKWKWWPLLPLYPYGRRRTIFRELVPNQIWSFEQLQGIYYVAVPVRLLVIRVKNELMIINPLPPTSELLKEIDLLQKKIGPVKTIVLPTASGLEHKIGLPALARAFPNAKIWLCPGQWSFPFQLPFDWLGIPSNRTNILLADGFPHGDDCEWISLGPIDIGLARFQEISCFHKPTKSLLVTDALVGIEATPPELFNLDPTPLLFHSREKGSEELIDSPIARRKGWLRLVLFASYLKPEKLEIPKIKEILENSFKPKMRNKRSHFGIYPFAWQEGWDLSAKKLVGEKTPLIQIAPVIERLVFPRGKKAFISWLNKIESLKGISFLISAHYSGKVRFTTNEIRALKVKIDNSNWEKTQGDFKFLSWFDQKLLNFGIVPKNPLKKFSD, MGSDKIHHHHHHMNNTRSAYEKIIKDLQGVGFSDYEAKTYIALLLTPNATAYEISKEAGIPKANCYSVLEALRKNGAVQAVSENPVKYVAVDPNRYFNQMVELTQLRCEDLKESLKNIGHLPQEDLVWSLNDAAAVGLHIEKMIGSARDTIRIKAADTTLEPHLPSLKKAARRGVKVLIILFGEDVRPFELGKNCKVYLHEGNGIRVGISHKLITVTRDYKEALVAEVGRDAYGSYTENKPIVTLADSLLRHEIYFAEIFSCFGDEIQEKFGPALVKLRESYLPADQADALKVFLETADPARLAGKATAA, MGSDKIHHHHHHMNNYNDTIRNLDNIVYKPNNLMITNVKEEKQNAEYAGCIFHLNNKTIRFRKSKITPNKIGQFVSFWEKGDNMQNQAFSYNAAPDLLVITCIDDNKLGQFIFPKEILLKEKILRTENQKGKMAMRIYPIWDTPVSNQAKKSQLWQIQYFVDLSNHNNLTIDELLNLYS, MGSDKIHHHHHHMNQPDAYLWEQHIPGGCHWSGILRRGTTLRMTDVSGGANASVLFFNQEEKLERYNMADTLKSQHTFRLTKGHACHSDMGRIFCCITADSAGWHDTVCGLSDADLIRRKYGTARYQEHRNQMFRNGLDGMLIELGKWGLGMRDVVSNINFFSKVTANSAGELTFHSGNSKAGDHVDLSFEMDTLVVLSAAPHPLDPSTTYQPGAVNLAAFATPSSAIAECAHISENQRARQNTECLYACHGGAA, MGSDKIHHHHHHMNQTLRIGSGAAWWGDRVEPAALNAEHGALDYLCFETMAEATVSAAQVRLRRDSSFAGYDTYLDERMRAVLPACMRHGTRIISNQGWINPTGAAERIVQLLRDAGQHGVRVAAVCGSLITDRVLELADRVLENGAPVRSLAPDLISAEVYLGAEPIVAALRAGAQIVVTGRVADPSIFLAPMMHGFGWDPLDHERVGAGSAIGHLLECGAQVTGGYFCDPGFKELPEPWNFAFPIAEVQSDGTAVITKVAGSGGGVTLQTVKEQMLYEVHDPANYLTPDVVVDFTQARLEQIGPDRVRVTGLTGKPRTPTLKVTIGCAEGFIGEDMFFYAGPGALRRAQWARKILQERFRIVQLQAEELRIDFLGLNAIHGAATPADAVEPYEVAVRVAARTKTRAEAAKVGREVDGMAVSGIAHTGKRVPHQERWREVIGLWSALVPREAVPAHICYFES, MGSDKIHHHHHHMNSEASENRPAHSATGTLWSWHGGNGALIWQLMFSSDAVMGIKRFPQERKAAFFCLESSTGRVLRDDFVLTAGDENETPVGDGWMIGLETVHGSRLVCHTYQPGSPEHLGIWAINLPEARVVWSRPDLTFTANLGDAFLAYRSIVFAGFPERDYVLIDPLSGCELEHLGTAHERPNQLRDAAQSEEERQRILLPDTVFDEAGHVENINHGATSVTVFHRMEPVAEGVPGWVSTLSVSECERLVHEDVMASGEPMPVFNSFLIKDDRLYYIREREFLVSFVVS, MGSDKIHHHHHHMNSMLNILEEISSRIKRPLITLLLFKYLRSVKRLECKNGQIIEIDDPSKYFISDLVYVCDVFKHFKSIKVRNGKVILDGIPFRPSELRYIGDVIEKLKLRVGSNFIAEFIYNGRIVKFRLAMTSKGVTGVFSLYEMFVREDYKVFDYKGKTVLDVCGFIGDSALFFALNDAKKVVSFEPQREAYELLVENVKLNEFDNIIVAINEAVGEKDSMVEFLIPDEFSLGASRYIRAGKKTSVKVRDIIRVMNEFKPDIIKLDCEGCEYGIIDKLLKTGRIYDVEGLVVEFHDTPEVKRWDYIRSLPFDVAIISDNPHWKVTVVSIRVMQNDAPRHI, MGSDKIHHHHHHMNSNFLSSYPRDVIAVLVKDDQPLEQPKCNVRLAEFTYATVGVNGEPTTASAAMLVPGGPQCQGPYPLLGWGDGTQTLRRDEMAKDIRDAKGNDPLVTHLASQGYVVVSTDYLGLGKSSYPFHPYLHSATEANAMIDALRAARTVLDRLNTPLSGKVMLSGYSVGGHAAMASQREIEAHLSKEFNLVASAPIAGPYALEQTFVDSWSGRNTVGESTFGLVLASYAIVGMQHAYQNIYTAPSQVFRAPWAATVESQFPGTKSLLDLFVDLPEIGKVKQYFQADFYRDFASNPNNPFRKDLARNDLLDWRPRTKTLLCGSSNDATVPLKNATTAIAAFEQRGSTQVSLVDLGTGKASDNSAGEHLAIKDSCIVAVRQQLLDKQR, MGSDKIHHHHHHMNSVVNFRDIGGFPTQQGTVVKTGYFFRSGELVNVAQADQQKLVEDYQIKRIYDFRSAAETQERPDDSIQGTNYLHIDILADIQAQTASLEGMLKTVGSPDEAMDMAYKEMVLSNSGRKGYQTFFENFLSYPQEAILFHCFAGKDRTGIGAALILSALGVEHSYILEDYLKTNEQRKTANEQIIAQYQANGTPLAEIQQLETLLYVKKEYLATALQAIEKEFGSVEGYLKEGLGLPLSAKKDMLSLYTKS, MGSDKIHHHHHHMNTKNYFIIGGTGGIGKAMVEQLLQTATNEHASTGMNNDTGIRVFATYHKSIPDFEADNLYWIAMDICDEQSIKHAVDTIKQQTTHIDWVINCAGLLHTKAQQPEKALQQLESEFFLQNMQVNALASLLIAKHIKPLLAKAERSADKPAIFATISARVGSISDNQLGGWYSYRMSKAALNMGMKNLSIEWSRSLKDVCVVVMQPGTVNTQLSAPFQGNVADGQLFSPTYSAECLLEVLSKMSAAQSGSFVDWAGESIPW

From the DeepSol protein solubility set
